Test results reported in the domain aggregation screens of Martell et al. (2025).

Assay: soluble fraction after stress (log2 fold change); higher = more stays soluble; pooled small domains, quantitative proteomics
Details: stress: 50 degC
In short: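 Custom libraries of small protein domains were pooled and measured in a high-throughput format, with quantitative proteomics as the read-out. Each library was stressed at 50°C. The value is the log2 fold change in the amount of each protein that stays soluble after stress, used as a measure of aggregation propensity; higher values mean more of the protein stays soluble.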

Sequence | soluble fraction (log2)
HMDTFEITVEESDIDKRIDLFLAGNLESFSRSYIQDLIKKGKATISGKPVKANYRLREGDSVVLSIPKPK | -0.227
HMVNLKQVELREHHPWVGHKIKELDISRHTLIVMIRRGDNAIVPNGDTLIKSGDIVFVFSKR | -1.05
HMGQLIVTIPNFERRPAEQAIQKLEELGLVPEEKQIYHDDIPAGSVIYTDPSKDSQVNAGTKVYVYVSLG | -0.116
HMNTFDLSKLEEIILASRDKAMKTKEFTELDNLKNLFITAGLDVQMSKNGIKLIKGPKFNSSLLEDF | -0.655
HMQVPDLYRTLGVGRDATTEAIEAAYVGWQARLSAGEPISTQEWERLRYAHEVLSNPQRRSLYDSLVAET | 0.0709
HMSRQREWIYDYIQSHPDRHMSVEEIYEGLKAENREVSVATVYRNLKILQDENRIASLMLESGKQVFDK | -0.371
HMRGPVRLDLPVSGLSRSSGPALAKILQAVPGVHKAHVNVRSGKATLEYDPARAKVTDFVEVIRSAGFGT | -0.0414
HMPIPIESEISRSPGQSIYAFVQQHYGRSGRSPADMRALVGLILRLNRQIRTPLLIPFGLVVVRPT | -0.0619
HMSVEVPNLIGKTLDQVDIDLKSLDLSFVILDSARYNSSFKPLSVIDHQPISGAKVKVNRKIYLTINPS | -0.445
HMVDGAHKQQAAVQALTPALKVLAAAPEGKKGQAIQALRAVLKQHGRWLDDATAQQVHEQLLAAGDAQGWQ | 0.297
HMPGIDDAAVEHAERVLAQHIGPMARLLVRRTVPRAANLFDLHRRLGALIPESEPRTAFLSAVVT | 0.0708
HMLNPVEKLLLLSQLYIGRLKGSFVVKEKHHKSTILGEVRELSPEEITLKTDEGYRLIRVDDILTIQL | -2.18
HMKIDNPEYQKIMDMIPYFFQTRNYDEAIEALSYVIEQEPSFSEAYNKRATFYFMMGDFENSMKDIESTLA | -0.155
HMDLHSQVFESYERKIREVLREGPLTFEEILHAFALKRHETVAQVITYLMDEGKMSDSGDGKLIYSG | -0.558
HMETENLSPREREILEYIVKGYSYKMIAADLNIATETVRSHIKKIYKKLQVNSATEAVYKYSN | -0.322
HMARLEELSNGSIVEGLLSGEAVTVVSTKWYGSSSMEVFYKTNRGSTGSQILYREDEPSLTVLEKS | -0.32
HMVGLTDLQRNVLVQIARGKSRQLISRTLKVTPAEISAALKVAQRRYRVASSTEVIVQALYDKTLSFHEIM | -0.625
HMDFSVTIKGTSFPVMVSLKKMKQVRLKVFPSGEIKLSAPVGTPEKWIVEYLNDKMSWIEEKMDLFVQ | -0.787
HMTTTTTYITNTDAVNIRQQATTSSTSLGKLAKNTILSVKKKSGDWYQITYKKQTAYIHASLVDKKTAKVT | -0.556
HMASQFSLIVTQADAGMRLDSLLAVSGAYPSRSAAVKQIEAGKVLVNGLARSKRSIVAPGDTIVYEEIP | -0.584
HMITVEAPMPGKVLSVNVKAGDKVEAGDVLLILEAMKMQNEIMAPEDGTVSDVRVSAGDTVATGDVMVV | 0.0409
HMNPFPDNTAEVLSQFKNIIVPELNTGQLSKLLRARYLVDTVGINKVEGLPFTAQELEEKIESLINSF | -0.323
HMTMNLIEIGHVVGARRAELGLTQAQLAHLSGLSRQTVVGLEKGTLSDLGVNRVGQVMAVLGLDS | -0.51
HMDTIYMVVAKNIKYYRLIKSMSKKDLAEAVNVTPMAISNYENGKRKPEIDILKKIANVLGVRVVDFLTVR | -1.73
HMSSWEEQLKIWAKNELASGNTDILARATVSFEQILIEAALTHTGGRKKTAAELLGWGRNTLTRKIKELHI | -0.29

Sequence | soluble fraction (log2)
HMEPSAQEIANKLLGHVKSLGLPITGLSISYNSTSDLATVRGQVQSQADREKIILAVGNVDHVAKVDDQLT | -0.0356
HMYDDEELDVLAHRPIESYTDAELAMLREVAETLLETDYEGWLKSLSMRGILLPPEILQLVT | -0.049
HMQEQIVQGIVKYFDAEKQFGFIAGDDGVDRFFNAKSIQGNAVKTGDRVRFLAISHIRGPRALKISA | -0.852
HMDITKPKISFEPGEMVRVVDGPFNDFSGVVEEVNYEKSKVRVAVLIFGRSTPVELQFNQIEK | -0.252
HMADEIQLVVQVNGKLRGRIMVAPDASREEIEKTALADADVSRFLGDTPVKKVIIVPKRLVNIVAPAPK | -0.0114
HMTAFAGLTPRERDLLELIAQGRDNAQIAATLGVSDKTVRNHITHIFAKLEVETRAQAIVLARNAGFGRA | -0.356
HMAPNDELTRQVISVLSGTPQQAFNYKQISKKLNINDSSERRMVSNILRELAGKGEIVEVYQGKYRSKAPA | 0.0588
HMSVLSVASKNQAINPGQVVALLKDGIKLNDDGRVEILDNNNNIRYNEKGNLLSIEERVKEFLDANPHFRQ | -0.368
HMEIYELTDQEQRVLEFIGEGMTNREIAKNMFLAEKTVKNYVSSLLRKLGLERRTQAAAMAVRLSV | -0.0994
HMQAALEVQASAGVLAPVPPDQRQALLDTLAQDPRPGYQHEAGRVYGFPFGGFEVRFTVSDGLLTVLSAYK | -1.7
HMKMSVEEVNLSPRTTNALINNDIKTMKDLVALTDTELRDLKGFGSKAYEEVKEKLSELGLSTQ | 0.227
HMKPTSLLGIERYLGSGLIRGVGPSTAKQIVEHFGMETMEVLTEHPERLQEVHGMGRKRWRQIAESFQEQQ | -0.797
HMIIIPKKDYDVSQLDNLVSWLKDRGLEVHISRGENLTVIGLIGDTSKIDIDLIRSLDVVEEVKRIQ | -0.326
HMDINVDILPLLKTMTDTLRKVIELDIPFLKDARVQRVNSLDELLLRADITTAEKFRKVFEAYQIEADFGK | -0.804
HMVTTDPIADMLTRIRNASSQKHKSVDVPASKEKLAIAQILFEEGYIKSFEEIKEENNQGVIRITLKYTEK | -0.0766
HMGLLGTDISAETMIGYFKKIDLGFDEETQEVIVPSWRQDLLRDADIAEEVARFYGYDNIPTTLPSGEST | -0.122
HMNSDQMKEHLDNLVDMAKKNDNTLIDTEIVNYFVGKPDIELNTDMMTKIFDYLDEHHVAVLS | -0.107
HMPSPEVELLEDLLSKTDEAEVEAAFHENQALVNDEFKAMLGSLIQELSKTQEADPEIIARIRFIQKLT | 0.16
HMTSGTLTLTQDTPVYTEPNKDGGVAYVQPQGDIQWDKYIFANGDNWYSFVQKNRDQEVRFYIAYSDVG | -0.0923
HMFENPRALLEMMISLGNEQGLINMARDIVSAGEFRRLELAAGGDRRKLARMLIDHLVEVAPRLP | -0.394
HMHGSTAVVPQIKNMPYSEASVRLGANGLAIEINDSVYDRDMPPGTVIESWPKAGAVVKQGRQVYVTVTA | -0.221
HMYGTQTVNRGAVQPGMLVKHKDSTWTASANARGRLYLHRGVEMTYTRDLLVEVYLNGLGNGL | 0.102
HMYRYYSTLRPITPGAYPKPADNPAMLIHNFDNREYVGKIGREAWGYVEYNNPLTKEQIEAFDFVAE | 0.0677
HMSTLGIRIKHYRTDSNLTQKELAGLINVKRDALANWETDRALPDVMNLKKLAEVFQVSTDELLQV | -0.927
HMENVRKTEWVTISNDKSQTRTTVYFESGNQKLDKHPQIQGFEYQRTYVEGGVKYYLFVEKGTKLDE | -0.166

Sequence | soluble fraction (log2)
HMIEMAGGYRKGDRVELHSLKGAAEHNGKQGTVVGPQGERVKVLLDDSDSKTLALKVTNLTKLESA | 0.112
HMDENVVLRKVAREAFVIEYVRGIRAIDPGIGGPKLWLMYKREFGDNDTVGRDTFEDILDRNNLKVRI | -3.26
HMNNIGENIKKYRTKQGLSQEDFAKKSGVKYTTLTKIESGVIKKPSVLVMAKIAKALGVNIEELI | -0.0879
HMHNNTITLNKKTYVYTASGKKMSKYLGYTYINKGTTLNYYGTKNIKGKTFYYIGDHAYVNAANVGKVTN | -1.92
HMIYRTTSVPIDNISTQKFNLQEGWIEMNKNEVEDFIRQKNLELVVTDSNVMLDKFALNGDPNKFKVFKY | -0.094
HMDTRKEREIALYEAALRLIASGVNPAAMKVQQIADEAGIGKGTVYEYFASKEEILHGMALH | -0.241
HMYTVVVGDSPSLIADKTGVPLKELTAMNPNLSDNFLPGKQLL | 0.000825
HMGIIQAQIPGLVSRLFVKKGDKVAVNQRLFILEAMKMENEIDSPIQGMVEKIHITTGSKVEKGDLIMEIV | -0.323
HMREVSPEDLALMRRIDAWHLEHPFAGARLLRDLLRPEGFQAGRRHIGTLMARMGIEALYRK | -0.458
HMLSLDDAAFERYDLTMREREVLLLLLNRLTYEEIAERLFISTNTVKTHVGNVYKKTGVSSRKELVSK | -1.08
HMAEVAFEEQNIEQISNLLLRIQAIFAELMTALDKEKGGEIADNLERLYVFFLEKLGDANVRKDPAP | 0.00759
HMSSYAEVMERSKYLQLHKYKIWKSETDGFWRTYYLNEQGKRKMKKLKHSEDMIDFVIEYVQNNE | -2.2
HMKPSTETLYATARINVRAAADTSAEKLGSIEMGEAVVRTGTDGDWSIIEYNGSTGYVKSEYLTANAGDAT | -0.0962
HMQGLIGEQKAIQIALSRVPGAKPEHVRELKLDYDDGMQLYEGEIFYNFREYEFEINAVTGEVVGWEI | -1.6
HMGISGSDLEKMIRNILVNNTDVVETIKSGQDKKGKKQKFLQGLIMKEARGQTDPREAASLLAKLLE | -0.0715
HMLPPLGDQELELLRFITESAPITVREAAESYGKDRGLARTTVLTMMERLRAKGYLTRSESGAANEYSP | -0.155
HMDTPVYYYVNGNGVRMRKDASLESDILILLYKGTKVEYVDVKGEWIKVKYNNEIGYIRNDLLSAEMPD | -0.0872
HMDYQEVEFEKLGKEILTKILLDINKKATKKTLKILIDGFNYDSYRSFYIAIGKAQISSDSILELLQH | -0.622
HMPEPPRVGETLAALRQDRALSLDELSRQAGVSKSMLSQIERNQANPTVAVVWRLANALGVPMAELLGA | -0.108
HMGEGRVRLAQEAANRFMTAMAGDRPGFEEAGRALFAGDRARFHAETEGWPEDIRDHARRLAEPALQ | 0.0288
HMNVESLVGKQVIVSETIDNLKATGQVKVNGLEWTARAADETDIIPQGTEVTINEVSGVKLIVSR | 0.241
HMNFSKEYILVHSYKEIDILDALIVKYEATLVNREFDLFINSYIKINEDYAKLFRDEIISKTSGSMSIKEL | -0.825
HMSENDTILAKFASIINNKSLELVIFPDTAYLKGQVSTPEDKARAETVAQSLLGSKPLISLIEFE | -0.0145
HMTTLEGIEKYLGSGMIRGIGPAYAGRLTKVFGEAVFDVIEQSPERLREVEGIGPKRVSRIVSGWAEQ | -0.264
HMPNILLSVKDASVAISVSSKMVRLLIASGRLKAVNLGKRMTRISLQELTDFAQRQGGNVVLP | -0.147
